Test results: paper PMC8213707, “Structural basis for the ARF GAP activity and specificity of the C9orf72 complex” (Nature Communications, 2021)

T1: SMCR8 of the STREP-STREP-FLAG-ARF1-SMCR8 fusion (UniProt Q8TEV9 1-937)
T1 construct: SMCR8; In the structure its N-terminus is joined to the C terminus of ARF1 E17-K181, which carries the N-terminal STREP-STREP-FLAG tag, on one chain; also called Smith-Magenis chromosome regions 8
T1 sequence: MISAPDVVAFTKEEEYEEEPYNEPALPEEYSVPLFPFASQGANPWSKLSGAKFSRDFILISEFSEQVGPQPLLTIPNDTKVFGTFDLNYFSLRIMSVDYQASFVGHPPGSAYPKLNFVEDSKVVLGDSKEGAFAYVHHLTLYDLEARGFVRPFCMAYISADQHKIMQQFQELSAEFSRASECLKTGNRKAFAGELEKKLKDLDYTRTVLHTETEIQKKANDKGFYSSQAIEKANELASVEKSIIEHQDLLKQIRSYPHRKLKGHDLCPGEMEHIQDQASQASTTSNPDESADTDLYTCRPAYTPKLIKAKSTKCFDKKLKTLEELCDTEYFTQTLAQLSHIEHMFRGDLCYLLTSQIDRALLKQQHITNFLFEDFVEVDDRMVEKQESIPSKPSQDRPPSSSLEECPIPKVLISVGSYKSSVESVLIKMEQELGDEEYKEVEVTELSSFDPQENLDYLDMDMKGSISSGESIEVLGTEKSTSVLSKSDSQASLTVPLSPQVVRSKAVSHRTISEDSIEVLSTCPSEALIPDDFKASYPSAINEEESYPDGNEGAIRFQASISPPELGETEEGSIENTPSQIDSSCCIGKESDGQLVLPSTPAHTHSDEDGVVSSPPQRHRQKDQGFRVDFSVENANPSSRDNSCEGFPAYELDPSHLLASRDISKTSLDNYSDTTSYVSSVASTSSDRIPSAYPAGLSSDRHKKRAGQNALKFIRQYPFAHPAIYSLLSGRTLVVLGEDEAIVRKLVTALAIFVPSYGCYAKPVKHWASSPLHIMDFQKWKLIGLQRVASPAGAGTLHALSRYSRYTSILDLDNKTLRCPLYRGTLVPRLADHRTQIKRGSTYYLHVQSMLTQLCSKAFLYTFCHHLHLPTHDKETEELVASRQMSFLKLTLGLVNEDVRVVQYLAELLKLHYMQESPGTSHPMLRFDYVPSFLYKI

B1: C9orf72 (subunit of the C9orf72:ARF1-SMCR8:WDR41 complex) (natural protein)
chain: MSTLCPPPSPAVAKTEIALSGKSPLLAATFAYWDNILGPRVRHIWAPKTEQVLLSDGEITFLANHTLNGEILRNAESGAIDVKFFVLSEKGVIIVSLIFDGNWNGDRSTYGLSIILPQTELSFYLPLHRVCVDRLTHIIRKGRIWMHKERQENVQKIILEGTERMEDQGQSIIPMLTGEVIPVMELLSSMKSHSVPEEIDIADTVLNDDDIGDSCHEGFLLNAISSHLQTCGCSVVVGSSAEKVNKIVRTLCLFLTPAERKCSRLCEAESSFKYESGLFVQGLLKDSTGSFVLPFRQVMYAPYPTTHIDVDVNTVKQMPPCHEHIYNQRRYMRSELTAFWRATSEEDMAQDTIIYTDESFTPDLNIFQDVLHRDTLVKAFLDQVFQLKPGLSLRSTFLAQFLLVLHRKALTLIKYIEDDTQKGKKPFKSLRNLKIDLDLTAEGDLNIIMALAEKIKPGLHSFIFGRPFYTSVQERDVLMTF
notes: C9orf72; not shown: GST, N-terminal, cleaved

What was measured:
Conditions in all cases: both partners purified
[1] = target: T1, SMCR8 of the …; assay: cryo-EM structure; chimeric C9orf72:ARF1-SMCR8:WDR41 complex, GDP-bound, incubated with BeF3^- overnight; 20 mM HEPES pH 7.4, 200 mM NaCl, 2 mM MgCl2, 0.5 mM TCEP; 3.9 Å reconstruction
[2] = target: T2, C9orf72:SMCR8:WDR41 complex (wild type) (UniProt Q96LT7 1-481; Q8TEV9 1-937; Q9HAD4 1-459); assay: SEC; 15 μM C9orf72:SMCR8:WDR41 incubated with 15-fold ARF1^Q71L in 500 μl overnight, injected into Superose 6 Increase 10/300
T2 construct: C9orf72; SMCR8 (Smith-Magenis chromosome regions 8); WDR41 (WD repeat-containing protein 41), cloned without a tag; The methods describe the purification for the fusion complex; also called C9orf72 complex; GAP complex; not shown: GST, N-terminal, cleaved; copies: + +

[3] = target: B1; assay: cryo-EM structure; chimeric C9orf72:ARF1-SMCR8:WDR41 complex, GDP-bound, incubated with BeF3^- overnight; 20 mM HEPES pH 7.4, 200 mM NaCl, 2 mM MgCl2, 0.5 mM TCEP; 3.9 Å reconstruction

binding result [1]	binding result [2]	binding result [3]	Binder
binds	–	–	WDR41 (subunit of the C9orf72:ARF1-SMCR8:WDR41 complex) (natural protein, WDR41, cloned without a tag; also called WD repeat-containing protein 41) MLRWLIGGGREPQGLAEKSPLQTIGEEQTQNPYTELLVLKAHHDIVRFLVQLDDYRFASAGDDGIVVVWNAQTGEKLLELNGHTQKITAIITFPSLESCEEKNQLILTASADRTVIVWDGDTTRQVQRISCFQSTVKCLTVLQRLDVWLSGGNDLCVWNRKLDLLCKTSHLSDTGISALVEIPKNCVVAAVGKELIIFRLVAPTEGSLEWDILEVKRLLDHQDNILSLINVNDLSFVTGSHVGELIIWDALDWTMQAYERNFWDPSPQLDTQQEIKLCQKSNDISIHHFTCDEENVFAAVGRGLYVYSLQMKRVIACQKTAHDSNVLHVARLPNRQLISCSEDGSVRIWELREKQQLAAEPVPTGFFNMWGFGRVSKQASQPVKKQQENATSCSLELIGDLIGHSSSVEMFLYFEDHGLVTCSADHLIILWKNGERESGLRSLRLFQKLEENGDLYLAV
binds	–	–	B1
–	binds	–	ARF1^Q71L (residues E17-K181), GTP-locked mutant (domain or fragment, ARF1, residues E17-K181 (N-terminal myristoylated amphipathic helix removed); source: E. coli BL21 DE3 star, purified (Ni-NTA, Superdex 75)) not shown
binds	–	binds	ARF1 (residues E17-K181) of the STREP-STREP-FLAG-ARF1-SMCR8 fusion (domain or fragment, ARF1, residues E17-K181; In the structure this ARF1 is joined by its C terminus to the N-terminus of SMCR8 on one chain (STREP-STREP-FLAG-ARF1-SMCR8, inserted by KpnI sites); also called ARF1-GDP-BeF3^-) not shown
